Laboratory results reported in the Human Domainome abundance scans (Beltran et al. 2025).
± gives the uncertainty stated by the source.

B1: Pre-mRNA-processing factor 40 homolog B, residues 274 to 332; numbered along this chain, Q6NWY9 (parent)
chain: SNREKAKQAFKELLRDKAVPSNASWEQAMKMVVTDPRYSALPKLSEKKQAFNAYKAQRE

Variants of: B1
Test: abundance fitness (aPCA) (normalised: wild type 0, dead -1); higher = more abundant; growth selection in yeast, the domain comes from the species named
Conditions: Homo sapiens

Row | Variant | abundance fitness
1 | P20F | -1.59 ± 0.38
2 | P20G | -0.391 ± 0.05
3 | P20H | -0.789 ± 0.16
4 | P20I | -0.753 ± 0.14
5 | P20K | -0.654 ± 0.12
6 | P20L | -0.641 ± 0.072
7 | P20M | -0.549 ± 0.083
8 | P20N | -0.587 ± 0.13
9 | P20R | -0.592 ± 0.053
10 | P20S | -0.506 ± 0.066
11 | P20T | -0.421 ± 0.083
12 | P20V | -0.578 ± 0.062
13 | P20Y | -0.641 ± 0.14
14 | S21C | -0.001 ± 0.1
15 | S21D | -0.077 ± 0.1
16 | S21E | -0.054 ± 0.12
17 | S21F | 0.029 ± 0.11
18 | S21G | -0.103 ± 0.074
19 | S21H | -0.037 ± 0.47
20 | S21K | 0.134 ± 0.12
21 | S21L | 0.109 ± 0.087
22 | S21M | 0.074 ± 0.11
23 | S21N | -0.492 ± 0.16
24 | S21P | -0.146 ± 0.1

Row | Variant | abundance fitness
25 | S21Q | 0.014 ± 0.13
26 | S21R | -0.083 ± 0.073
27 | S21T | 0.06 ± 0.093
28 | S21V | 0.089 ± 0.073
29 | S21W | -0.055 ± 0.13
30 | S21Y | 0.005 ± 0.12
31 | N22C | -0.211 ± 0.13
32 | N22D | 0.05 ± 0.08
33 | N22E | 0.03 ± 0.088
34 | N22F | -0.906 ± 0.24
35 | N22G | -0.217 ± 0.062
36 | N22H | -0.179 ± 0.17
37 | N22I | -1.04 ± 0.31
38 | N22K | -0.553 ± 0.11
39 | N22L | -0.446 ± 0.089
40 | N22M | -0.623 ± 0.19
41 | N22P | -0.664 ± 0.13
42 | N22Q | -0.217 ± 0.16
43 | N22R | -0.505 ± 0.06
44 | N22S | -0.036 ± 0.074
45 | N22T | -0.014 ± 0.082
46 | N22W | -0.063 ± 0.1
47 | N22Y | -0.57 ± 0.15
48 | A23C | -0.206 ± 0.083

Row | Variant | abundance fitness
49 | A23D | -0.522 ± 0.091
50 | A23F | -0.348 ± 0.14
51 | A23G | -0.464 ± 0.054
52 | A23H | -0.591 ± 0.18
53 | A23I | -0.122 ± 0.13
54 | A23K | -0.459 ± 0.1
55 | A23M | -0.142 ± 0.096
56 | A23N | -0.335 ± 0.12
57 | A23P | -0.533 ± 0.13
58 | A23Q | -0.528 ± 0.093
59 | A23R | -0.506 ± 0.068
60 | A23S | -0.313 ± 0.072
61 | A23T | -0.467 ± 0.1
62 | A23V | -0.222 ± 0.065
63 | A23Y | -0.254 ± 0.12
64 | S24A | -0.238 ± 0.063
65 | S24C | -0.371 ± 0.16
66 | S24D | -0.355 ± 0.12
67 | S24E | -0.306 ± 0.088
68 | S24F | -0.654 ± 0.13
69 | S24G | -0.366 ± 0.064
70 | S24H | -0.344 ± 0.15
71 | S24I | -0.65 ± 0.19
72 | S24K | -0.229 ± 0.091

Row | Variant | abundance fitness
73 | S24M | -0.591 ± 0.093
74 | S24N | -0.447 ± 0.2
75 | S24P | -0.169 ± 0.13
76 | S24Q | -0.422 ± 0.1
77 | S24R | -0.671 ± 0.079
78 | S24V | -0.644 ± 0.067
79 | S24W | -1 ± 0.13
80 | S24Y | -0.74 ± 0.18
81 | W25A | -0.244 ± 0.082
82 | W25C | -0.109 ± 0.12
83 | W25D | -0.114 ± 0.1
84 | W25E | -0.095 ± 0.092
85 | W25F | 0.249 ± 0.12
86 | W25G | -0.161 ± 0.055
87 | W25H | -0.347 ± 0.22
88 | W25I | -0.251 ± 0.18
89 | W25K | -0.221 ± 0.14
90 | W25L | -0.242 ± 0.087
91 | W25N | 0.038 ± 0.12
92 | W25P | -0.237 ± 0.11
93 | W25Q | -0.36 ± 0.3
94 | W25R | -0.189 ± 0.057
95 | W25S | -0.13 ± 0.075
96 | W25T | -0.149 ± 0.093

Row | Variant | abundance fitness
97 | W25V | -0.291 ± 0.073
98 | W25Y | -0.18 ± 0.12
99 | E26A | -0.31 ± 0.091
100 | E26D | -0.019 ± 0.12
101 | E26F | -0.729 ± 0.16
102 | E26G | -0.274 ± 0.067
103 | E26H | -0.237 ± 0.22
104 | E26I | -0.547 ± 0.15
105 | E26K | -0.169 ± 0.13
106 | E26L | -0.362 ± 0.088
107 | E26M | -0.325 ± 0.19
108 | E26P | -0.149 ± 0.099
109 | E26Q | -0.412 ± 0.16
110 | E26R | -0.719 ± 0.093
111 | E26S | -0.229 ± 0.089
112 | E26T | -0.006 ± 0.13
113 | E26V | -0.364 ± 0.083
114 | E26W | -0.598 ± 0.11
115 | E26Y | -0.581 ± 0.14
116 | Q27A | -0.143 ± 0.091
117 | Q27C | -0.422 ± 0.11
118 | Q27E | 0.115 ± 0.11
119 | Q27F | -0.884 ± 0.23
120 | Q27G | -0.358 ± 0.059

Row | Variant | abundance fitness
121 | Q27H | -0.096 ± 0.24
122 | Q27I | -0.301 ± 0.2
123 | Q27K | -0.292 ± 0.12
124 | Q27M | -0.297 ± 0.14
125 | Q27N | -0.174 ± 0.15
126 | Q27P | -0.531 ± 0.2
127 | Q27R | -0.342 ± 0.059
128 | Q27S | -0.406 ± 0.11
129 | Q27T | 0.027 ± 0.11
130 | Q27V | -0.297 ± 0.091
131 | Q27W | -1 ± 0.095
132 | Q27Y | -0.524 ± 0.15
133 | A28D | -0.473 ± 0.072
134 | A28E | -0.431 ± 0.074
135 | A28F | -0.563 ± 0.068
136 | A28G | -0.48 ± 0.055
137 | A28H | -0.583 ± 0.067
138 | A28I | -0.595 ± 0.071
139 | A28K | -0.524 ± 0.063
140 | A28L | -0.684 ± 0.048
141 | A28M | -0.576 ± 0.062
142 | A28N | -0.445 ± 0.077
143 | A28Q | -0.313 ± 0.065
144 | A28R | -0.607 ± 0.05

Row | Variant | abundance fitness
145 | A28S | -0.413 ± 0.05
146 | A28T | -0.299 ± 0.054
147 | A28V | -0.277 ± 0.056
148 | A28W | -0.71 ± 0.068
149 | M29A | -0.125 ± 0.075
150 | M29C | -0.203 ± 0.1
151 | M29D | -0.097 ± 0.1
152 | M29E | -0.102 ± 0.1
153 | M29F | -0.295 ± 0.17
154 | M29G | -0.237 ± 0.058
155 | M29K | 0.166 ± 0.094
156 | M29L | -0.216 ± 0.093
157 | M29P | -0.103 ± 0.1
158 | M29Q | 0.047 ± 0.11
159 | M29R | -0.078 ± 0.059
160 | M29S | -0.136 ± 0.086
161 | M29T | -0.282 ± 0.088
162 | M29V | -0.114 ± 0.063
163 | M29Y | -0.014 ± 0.14
164 | K30A | -0.061 ± 0.078
165 | K30C | -0.423 ± 0.16
166 | K30D | -0.411 ± 0.12
167 | K30E | 0.067 ± 0.12
